In experiment [1] the target is Protein H (Streptococcus pyogenes (strain AP1)). The experiment can be described thus: MST; Monolith NT.115; Alexa-488-labelled Protein H constant at 0.5 nM, C4BP at 16 concentrations; 50 mM Tris-HCl pH 7.4, 150 mM NaCl, 10 mM MgCl2, 0.05% Tween-20; 37°C.
Target sequence in this assay (P50470 42-345 limits assumed): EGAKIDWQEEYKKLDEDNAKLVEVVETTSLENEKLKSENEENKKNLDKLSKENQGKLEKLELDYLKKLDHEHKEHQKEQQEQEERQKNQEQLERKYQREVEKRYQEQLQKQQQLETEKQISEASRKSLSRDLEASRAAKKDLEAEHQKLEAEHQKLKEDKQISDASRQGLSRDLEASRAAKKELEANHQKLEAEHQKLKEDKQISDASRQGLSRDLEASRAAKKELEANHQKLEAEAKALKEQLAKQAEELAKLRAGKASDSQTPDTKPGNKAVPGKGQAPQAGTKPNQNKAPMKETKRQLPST
For experiment [2] the target is unchanged. The experiment can be described thus: SEC; Superose 6 10/30; 5 nmol Protein H alone at 8°C and 28°C; column calibrated with high molecular weight markers; monomer to dimer.
The target in experiment [3] is C4b-binding protein (C4BP), human, purified from plasma (human) (UniProt P04003). Briefly: SEC; Superose 6 10/30, PBS, ambient temperature; 0.25 nmol C4BP with varying amounts of Protein H, pre-incubated 30 min at room temperature; area of the free Protein H peak fitted.
The target of experiment [4] is Protein H on the surface of Streptococcus pyogenes AP1 (Streptococcus pyogenes (endogenous in strain AP1)).

This is an account of results in article PMC6557989.

Sequence of C4b-binding protein (C4BP), human, purified from plasma (P04003 49-597): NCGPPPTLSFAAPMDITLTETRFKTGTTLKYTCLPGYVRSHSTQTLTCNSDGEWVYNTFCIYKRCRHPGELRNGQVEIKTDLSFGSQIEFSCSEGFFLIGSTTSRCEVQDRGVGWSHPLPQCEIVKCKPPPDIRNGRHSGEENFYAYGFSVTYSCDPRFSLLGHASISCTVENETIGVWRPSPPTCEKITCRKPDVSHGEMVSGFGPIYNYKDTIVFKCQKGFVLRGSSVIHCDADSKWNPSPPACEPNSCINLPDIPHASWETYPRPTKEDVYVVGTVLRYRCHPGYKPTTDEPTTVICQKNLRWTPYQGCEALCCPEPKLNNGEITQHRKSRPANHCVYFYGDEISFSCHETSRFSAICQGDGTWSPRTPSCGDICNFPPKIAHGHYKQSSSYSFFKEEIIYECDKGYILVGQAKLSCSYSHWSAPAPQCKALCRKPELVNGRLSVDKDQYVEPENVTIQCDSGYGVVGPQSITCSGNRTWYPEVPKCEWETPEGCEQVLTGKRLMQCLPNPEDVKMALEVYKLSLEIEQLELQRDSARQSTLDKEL
Sequence of C4b-binding protein (C4BP), human, purified from plasma (P20851 18-252): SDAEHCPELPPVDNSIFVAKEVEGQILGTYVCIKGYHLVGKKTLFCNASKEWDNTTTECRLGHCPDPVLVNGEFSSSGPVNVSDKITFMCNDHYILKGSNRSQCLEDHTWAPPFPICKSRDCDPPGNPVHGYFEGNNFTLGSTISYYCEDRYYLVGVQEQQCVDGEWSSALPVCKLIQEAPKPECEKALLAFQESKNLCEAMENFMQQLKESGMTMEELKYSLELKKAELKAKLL
Sequence of C4b-binding protein (C4BP), human, purified from plasma (human) (P04003 49-597, chain 1 of 2): as the sequence (P04003 49-597) above
Sequence of C4b-binding protein (C4BP), human, purified from plasma (human) (P20851 18-252, chain 2 of 2, further chain): as the sequence (P20851 18-252) above

As to “C4b-binding protein (C4BP), human, purified from plasma (from UniProt P04003 49-597; P20851 18-252) (complex)”, in experiment [1], the Kd was determined as 0.18 µM. With Protein H (natural protein), in experiment [2], the stoichiometry N stood at 2. This substance also yielded a stoichiometry N (Protein H monomers per C4BP) in experiment [3] of 26. For “Protein H on the surface of Streptococcus pyogenes AP1 (natural protein)”, in experiment [4], the aggregation of S. pyogenes AP1 grown overnight at 35°C, 37°C or 41°C (OD600 before against after vortexing); at 41°C all bacteria remained dispersed was 70%.
